The target in assay [1] is T1, CD16A endogenously expressed on primary human NK cells (human, UniProt P08637 17-254). The assay is described as follows: flow cytometry on primary human NK cells at 37 °C, biotinylated antibody, streptavidin-FITC, in the presence of 10 mg/mL polyclonal human IgG (competitor). The protocol:
(§1) Frozen NK cells were thawed, and viability was determined with trypan blue (Sigma-Aldrich, cat.: T8154). Cells have been centrifuged at 400×g, 5 min, 4° C. Cell pellets were resuspended in FACS buffer PBS (Invitrogen, cat.: 392-0434) containing 2% h.i. FCS (Invitrogen, cat.: 10500-064), and 0.1% sodium azide (Sigma, cat.: S8032) at 2×10⁶ cells/mL. 100 μL/well of the cell suspension were transferred into U-shaped 96 well plates, cells were pelleted at 400×g, 5 min. 4° C., and resuspended in 50 μL/well of diluted antibody constructs. […] After 40-50 minutes' incubation at 37° C., cells were washed 3-times with ice-cold FACS buffer. […] After the final incubation step, cells were washed 2-times with ice-cold FACS buffer, and the cell pellet was resuspended in 50 μL FACS buffer. Fluorescence intensity of >1×10⁴ viable cells was analyzed by flow cytometry and the median fluorescence intensity (MFI) was determined for each sample.
On the technique in general: In flow cytometry, cells or beads pass a laser one at a time.

Assay [2] concerns the target T2, human FOLR1 endogenously expressed on tumor cell lines (human, UniProt P15328 25-234). The assay is described as follows: cell-based or functional assay.
For assay [3], the target named is T1, CD16A endogenously expressed on primary …. In words: flow cytometry on primary human NK cells at 37 °C, biotinylated antibody, streptavidin-FITC, without polyclonal human IgG. The protocol: as §1
Assay [4] shares this target. The assay is described as follows: flow cytometry on primary human NK cells, biotinylated antibody, 37 C, with 10 mg/mL polyclonal human IgG as competitor, mean of 4. The protocol:
(§2) 4° C., and resuspended in 50 μL/well of diluted antibody constructs. […] After 40-50 minutes' incubation at 37° C., cells were washed 3-times with ice-cold FACS buffer. […] After the final incubation step, cells were washed 2-times with ice-cold FACS buffer, and the cell pellet was resuspended in 50 μL FACS buffer. Fluorescence intensity of >1×10⁴ viable cells was analyzed by flow cytometry and the median fluorescence intensity (MFI) was determined for each sample.
(§3) Equilibrium dissociation constants (KD) of antibody binding were calculated by plotting MFI values and fitting a non-linear regression model for one-site binding to hyperbolic dose-response curves using GraphPad Prism.

For assay [5] the target is unchanged. The assay is described as follows: flow cytometry on primary human NK cells, biotinylated antibody, 37 C, without IgG, mean of 4. As for the experimental part: as §2, §3
For assay [6], the target named is T2, human FOLR1 endogenously expressed on …. The assay is described as follows: flow cytometry on IGROV-1 cells (FOLR1 high) at 37 °C, FITC anti-human IgG detection. As for the experimental part:
Cells were collected and centrifuged at 400×g, 5 min, 4° C. Cell pellets were resuspended in FACS buffer (PBS (Invitrogen, cat.: 392-0434) containing 2% h.i. FCS (Invitrogen, cat.: 10500-064), and 0.1% sodium azide (Sigma, cat.: S8032)) at 1-5×10⁶ cells/mL. 100 μL/well of the cell suspension were transferred into U-shaped, 96-well micro plates (0.1-0.5×10⁶ cells per well), cells were pelleted at 400×g, 5 min, 4° C., and resuspended in 100 μL/well of serial dilutions of the indicated antibodies in FACS buffer. After 40-50 min incubation at 37° C., cells were washed 3-times with ice-cold FACS buffer. […] After the final incubation step, cells were washed 2-times with ice-cold FACS buffer, and the cell pellet was resuspended in 100 μL FACS buffer. Fluorescence intensities of >1×10⁴ viable cells were analyzed by flow cytometry and the median fluorescence intensity (MFI) was determined for each sample.

Assay [7] has as its target T1, CD16A endogenously expressed on primary …. In words: flow cytometry on primary human NK cells, with against without 10 mg/mL polyclonal human IgG. As for the experimental part:
as §2, §3

Assay [8] addresses recombinant human CD16A^158F, biotinylated, mFc.silenced/Avi-tagged (human, UniProt P08637 17-208, biotinylated (Avi-tag)). In words: SPR (Biacore T200), 37 °C, multivalent multi-cycle kinetics, biotin-captured antigen as ligand, construct as analyte, 1:1 binding model, n=3. The protocol:
(§4) For multivalent interaction analysis, biotinylated-mFc.silenced/Avi-tagged antigens were captured (FC2, FC4) to a density of 120-200RU, before CD123×CD16A ICE were injected (concentration: 0-60 nM) for 240s at a flow rate of 40 μL/min and complex was left to dissociate for 300s at the same flow rate.
(§5) After each cycle, chip surfaces were regenerated with 6M guanidine-HCl, 0.25M NaOH and reloaded with Biotin Capture reagent. Interaction kinetics were determined by fitting data from multi-cycle kinetics experiments to a simple 1:1 interaction model using the local data analysis option (Rmax and RI) available within Biacore T200 Evaluation Software (v3.1). Referencing was done against a flow cell without captured ligand (Fc2-Fc1, Fc4-Fc3).

Assay [9] addresses T3, recombinant human CD16A^158V, biotinylated, mFc.silenced/Avi-tagged (human, UniProt P08637 17-208, biotinylated (Avi-tag)).
T3 construct: also called CD16^158V
Described as above. The protocol: as §4, §5

Assay [10] has as its target recombinant cynomolgus CD16, biotinylated, mFc.silenced/Avi-tagged (cynomolgus, UniProt Q8SPW2 17-208, biotinylated (Avi-tag)). Described as above. The protocol: as §4, §5

Usually EC50 (read off the curve) stands for the concentration giving half of the maximal effect. The term Kd denotes the free concentration of one partner at which half of the binding sites on the other are occupied at equilibrium, for simple one-to-one binding. The koff is a measure of how fast the partners let go of each other. For orientation: kon means the second-order rate constant of association.

Sequence of recombinant human CD16A^158F, biotinylated, mFc.silenced/Avi-tagged (P08637 17-208): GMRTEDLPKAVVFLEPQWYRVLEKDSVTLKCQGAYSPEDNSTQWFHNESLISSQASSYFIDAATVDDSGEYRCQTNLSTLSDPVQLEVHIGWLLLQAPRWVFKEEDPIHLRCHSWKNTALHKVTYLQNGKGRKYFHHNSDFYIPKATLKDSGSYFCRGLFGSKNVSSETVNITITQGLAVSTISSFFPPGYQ
T3 sequence (P08637 17-208 F176V limits assumed): as the sequence (P08637 17-208) above, with F160V counted along it
Sequence of recombinant cynomolgus CD16, biotinylated, mFc.silenced/Avi-tagged (Q8SPW2 17-208): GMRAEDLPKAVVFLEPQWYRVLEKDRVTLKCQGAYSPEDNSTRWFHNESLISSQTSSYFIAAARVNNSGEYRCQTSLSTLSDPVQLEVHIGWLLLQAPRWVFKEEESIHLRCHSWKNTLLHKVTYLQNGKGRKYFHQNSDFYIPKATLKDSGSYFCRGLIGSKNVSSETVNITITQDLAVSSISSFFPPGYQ
T2 sequence (P15328 25-234): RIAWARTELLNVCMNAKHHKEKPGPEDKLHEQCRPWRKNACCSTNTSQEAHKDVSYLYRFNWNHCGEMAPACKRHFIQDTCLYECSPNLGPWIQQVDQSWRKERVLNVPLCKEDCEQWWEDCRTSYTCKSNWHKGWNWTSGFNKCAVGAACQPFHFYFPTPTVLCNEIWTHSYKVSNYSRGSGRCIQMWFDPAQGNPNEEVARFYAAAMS
T1 sequence (P08637 17-254 limits assumed): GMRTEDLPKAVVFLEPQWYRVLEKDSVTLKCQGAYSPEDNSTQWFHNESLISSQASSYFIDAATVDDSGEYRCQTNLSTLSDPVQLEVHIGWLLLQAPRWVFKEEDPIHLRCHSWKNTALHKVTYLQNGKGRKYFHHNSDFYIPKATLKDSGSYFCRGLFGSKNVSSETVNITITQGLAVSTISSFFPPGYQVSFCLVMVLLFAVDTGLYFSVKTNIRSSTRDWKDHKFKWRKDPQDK

B1: scFv-IgAb_444 (RSV×CD16A) (bispecific antibody)
chain 1: QVTLRESGPALVKPTQTLTLTCTFSGFSLSTAGMSVGWIRQPPGKALEWLADIWWDDKKHYNPSLKDRLTISKDTSKNQVVLKVTNMDPADTATYYCARDMIFNFYFDVWGQGTTVTVSSASTKGPSVFPLAPSSKSTSGGTAALGCLVKDYFPEPVTVSWNSGALTSGVHTFPAVLQSSGLYSLSSVVTVPSSSLGTQTYICNVNHKPSNTKVDKKVEPKSCDKTHTCPPCPAPEFEGGPSVFLFPPKPKDTLMISRTPEVTCVVVAVSHEDPEVKFNWYVDGVEVHNAKTKPREEQYNSTYRVVSVLTVLHQDWLNGKEYKCKVSNKALPAPIEKTISKAKGQPREPQVYTLPPSREEMTKNQVSLTCLVKGFYPSDIAVEWESNGQPENNYKTTPPVLDSDGSFFLYSKLTVDKSRWQQGNVFSCSVMHEALHNHYTQKSLSLSPGGGGGSGGGGSGGGGSGGGGSGGGGSGGGGSSYELTQPLSVSVALGQTARITCGGNNIGSKSVHWYQQKPGQAPVLVIYQDKKRPSGIPERFSGSNSGNTATLTISRAQAGDEADYYCQVWDDYIVLFGCGTKLTVLGGSGGSGGSGGSGGSGGSGGSQVQLVQSGAEVKKPGASVKVSCKASGYTFTNYYMQWVRQAPGQCLEWMGIINPSGGVTSYAQKFQGRVTMTRDTSTSTVYMELSSLRSEDTAVYYCARGSAYYYDFADYWGQGTLVTVSSG
chain 2: DIQMTQSPSTLSASVGDRVTITCSASSRVGYMHWYQQKPGKAPKLLIYDTSKLASGVPSRFSGSGSGTEFTLTISSLQPDDFATYYCFQGSGYPFTFGGGTKVEIKRTVAAPSVFIFPPSDEQLKSGTASVVCLLNNFYPREAKVQWKVDNALQSGNSQESVTEQDSKDSTYSLSSTLTLSKADYEKHKVYACEVTHQGLSSPVTKSFNRGEC
notes: also called RSV/CD16A scFv-IgAb_444; RSV(NIST)×CD16A
On to B1, for which the “EC50 (read off the curve)” value in assay [1] fell in the range of 10 to 20 nM. In assay [2], the “Phagocytosis [%], 4 h ADCP, DK-MG cells” value came out at 0%; the “Phagocytosis [%], 4 h ADCP, HCC-78 cells” value is 0%; the “Phagocytosis [%], 4 h ADCP, HeLa cells” value was found to be 0%. In assay [3], the “EC50 (read off the curve)” value was ~4 nM. The molecule further yielded a Kd in assay [4] of 19.9 nM. Moreover, the Kd in assay [5] worked out at 3.8 nM. Moreover, the binding result in assay [6] was “no binding (tested: about 500 nM)”. Also, in assay [7], the “fold loss in KD induced by IgG” value came out at 5 fold.

B2: scFv-IgAb_264 (CD123-2×CD16a2) (bispecific antibody)
chain 1: QVQLVQSGAEVKKPGASVKMSCKASGYTFTDYYMKWVKQAPGQGLEWIGDIIPSNGATFYNQKFKGKATLTVDRSISTAYMHLNRLRSDDTAVYYCTRSHLLRASWFAYWGQGTLVTVSSASTKGPSVFPLAPSSKSTSGGTAALGCLVKDYFPEPVTVSWNSGALTSGVHTFPAVLQSSGLYSLSSVVTVPSSSLGTQTYICNVNHKPSNTKVDKKVEPKSCDKTHTCPPCPAPEFEGGPSVFLFPPKPKDTLMISRTPEVTCVVVAVSHEDPEVKFNWYVDGVEVHNAKTKPREEQYNSTYRVVSVLTVLHQDWLNGKEYKCKVSNKALPAPIEKTISKAKGQPREPQVYTLPPSREEMTKNQVSLTCLVKGFYPSDIAVEWESNGQPENNYKTTPPVLDSDGSFFLYSKLTVDKSRWQQGNVFSCSVMHEALHNHYTQKSLSLSPGGGGGSGGGGSGGGGSGGGGSGGGGSGGGGSSYELTQPLSVSVALGQTARITCGGHNIGSKNVHWYQQKPGQAPVLVIYQDNKRPSGIPERFSGSNSGNTATLTISRAQAGDEADYYCQVWDNYNVLFGCGTKLTVLGGSGGSGGSGGSGGSGGSGGSQVQLVQSGAEVKKPGASVKVSCKASGYTFTSYYMHWVRQAPGQCLEWMGAIEPRYGSTSYAQKFQGRVTMTRDTSTSTVYMELSSLRSEDTAVYYCARGSAYYYDFADYWGQGTLVTVSS
chain 2: not shown
notes: also called scFv-IgAb_264 (CD16a1×CD123-2); CD123-1×CD16a2 scFv-IgAb_264
Regarding B2, in assay [8], the Kd came to 0.567 nM, the koff came to 0.0036 s⁻¹ and the kon was found to be 6.4e+06 M⁻¹ s⁻¹. Besides, in [9], the Kd was 0.43 nM, the koff amounted to 0.0027 s⁻¹ and the kon was found to be 6.3e+06 M⁻¹ s⁻¹. Moreover, in [10], the Kd was found to be 2.4 nM, the koff amounted to 0.013 s⁻¹ and the kon amounted to 5.2e+06 M⁻¹ s⁻¹.

The values are drawn from patent publication US20240417475A1 (AFFIMED, published 2024).
